Measurements as given in patent US20200062856A1 (XDCEXPLORER SHANGHAI, published 2020).

What was measured:
[1] = biological target: mouse TPBG protein, full-length, on the cell surface (mouse) (UniProt Q9Z0L0); test: FACS, CHOk1-mTPBG 3A3 cells
[2] = biological target: human TPBG protein, full-length, on the cell surface (human) (UniProt Q13641); test: FACS, CHOk1-hTPBG 3A2F1 cells
[3] = biological target: cynomolgus TPBG protein, full-length, on the cell surface (cynomolgus) (UniProt Q4R8Y9); test: FACS, CHOk1-cTPBG 3F13G4 cells
[4] = biological target: human TPBG protein, full-length, on the cell surface (human) (UniProt Q13641); test: FACS, HEK293 clone 293F-hTPBG 4A8
[5] = biological target: human TPBG protein, full-length, on the cell surface (human) (UniProt Q13641); test: FACS, HEK293 clone 293F-hTPBG 4A9
[6] = biological target: human TPBG protein, full-length, on the cell surface (human) (UniProt Q13641); test: FACS, HEK293 clone 293F-hTPBG 4B9
[7] = biological target: human TPBG protein, full-length, on the cell surface (human) (UniProt Q13641); test: FACS, HEK293 clone 293F-hTPBG 4C3
[8] = biological target: human TPBG protein, full-length, on the cell surface (human) (UniProt Q13641); test: FACS, HEK293 clone 293F-hTPBG 4C5
[9] = biological target: human TPBG protein, full-length, on the cell surface (human) (UniProt Q13641); test: FACS, HEK293 clone 293F-hTPBG 4E1
[10] = biological target: human TPBG protein, full-length, on the cell surface (human) (UniProt Q13641); test: FACS, HEK293 clone 293F-hTPBG 4F9
[11] = biological target: human TPBG protein, full-length, on the cell surface (human) (UniProt Q13641); test: FACS, HEK293 clone 293F-hTPBG 4G1
[12] = biological target: human TPBG protein, full-length, on the cell surface (human) (UniProt Q13641); test: FACS, HEK293 clone 293F-hTPBG 4G6
[13] = biological target: human TPBG protein, full-length, on the cell surface (human) (UniProt Q13641); test: FACS, HEK293 clone 293F-hTPBG 5A9
[14] = biological target: human TPBG protein, full-length, on the cell surface (human) (UniProt Q13641); test: FACS, HEK293 clone 293F-hTPBG 5D4
[15] = biological target: human TPBG protein, full-length, on the cell surface (human) (UniProt Q13641); test: FACS, HEK293 clone 293F-hTPBG 5E5
[16] = biological target: human TPBG protein, full-length, on the cell surface (human) (UniProt Q13641); test: FACS, HEK293 clone 293F-hTPBG 5E6
[17] = biological target: human TPBG protein, full-length, on the cell surface (human) (UniProt Q13641); test: FACS, HEK293 clone 293F-hTPBG 5G8
[18] = biological target: human TPBG protein, full-length, on the cell surface (human) (UniProt Q13641); test: FACS, HEK293 clone 293F-hTPBG 5H6
[19] = biological target: human TPBG protein, full-length, on the cell surface (human) (UniProt Q13641); test: FACS, HEK293 clone 293F-hTPBG 4H12
[20] = biological target: human TPBG protein, full-length, on the cell surface (human) (UniProt Q13641); test: FACS, HEK293 clone 293F-hTPBG 5A11
[21] = biological target: human TPBG protein, full-length, on the cell surface (human) (UniProt Q13641); test: FACS, HEK293 clone 293F-hTPBG 5C12
[22] = biological target: human TPBG protein, full-length, on the cell surface (human) (UniProt Q13641); test: FACS, HEK293 clone 293F-hTPBG 5G11
[23] = biological target: human TPBG protein, full-length, on the cell surface (human) (UniProt Q13641); test: FACS, HEK293 clone 293F-hTPBG 4E1 (NO 8)
human TPBG-hFc protein [24] = biological target: T1, human TPBG-hFc protein (human, UniProt Q13641 32-355); test: ELISA, coated human TPBG-hFc 1.0 ug/mL; control IgG at 2 nM
T1 construct: range 32-355; Expressed in HEK293 cells, purified on protein A; also called immunogen A; hFc tagged TPBG protein; not shown: human IgG Fc fragment of the pCpC vector
T1 sequence (looked up): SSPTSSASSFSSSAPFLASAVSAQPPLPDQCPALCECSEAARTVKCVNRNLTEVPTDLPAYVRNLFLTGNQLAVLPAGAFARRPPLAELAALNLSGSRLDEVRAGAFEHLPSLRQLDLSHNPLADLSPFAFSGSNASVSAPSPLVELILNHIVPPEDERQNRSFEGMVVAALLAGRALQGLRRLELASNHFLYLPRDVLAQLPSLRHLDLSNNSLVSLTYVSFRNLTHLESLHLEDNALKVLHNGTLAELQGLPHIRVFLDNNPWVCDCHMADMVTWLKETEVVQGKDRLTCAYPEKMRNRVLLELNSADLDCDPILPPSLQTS

human TPBG-hFc protein [25] = biological target: T1, human TPBG-hFc protein; test: ELISA, coated human TPBG-hFc 1.0 ug/mL; control IgG at 20 nM
human TPBG-hFc protein [26] = biological target: T1, human TPBG-hFc protein; test: ELISA, coated human TPBG-hFc 1.0 ug/mL; control IgG at 0.2 nM
human TPBG-hFc protein [27] = biological target: T1, human TPBG-hFc protein; test: ELISA, coated human TPBG-hFc 1.0 ug/mL; control IgG at 200 nM
human TPBG-hFc protein [28] = biological target: T1, human TPBG-hFc protein; test: ELISA, coated human TPBG-hFc 1.0 ug/mL; control IgG at 0.02 nM
human TPBG-hFc protein [29] = biological target: T1, human TPBG-hFc protein; test: ELISA, coated human TPBG-hFc 1.0 ug/mL; control IgG at 0.002 nM
human TPBG-hFc protein [30] = biological target: T1, human TPBG-hFc protein; test: ELISA, coated human TPBG-hFc 1.0 ug/mL; control IgG at 0.0002 nM
[31] = biological target: T2, cynomolgus TPBG protein, full-length, on the cell surface (cynomolgus, UniProt Q4R8Y9 35-420); test: FACS on CHOk1-cTPBG cells
T2 construct: whole, on cells; also called cTPBG; CHOk1-cTPBG
T2 sequence (looked up): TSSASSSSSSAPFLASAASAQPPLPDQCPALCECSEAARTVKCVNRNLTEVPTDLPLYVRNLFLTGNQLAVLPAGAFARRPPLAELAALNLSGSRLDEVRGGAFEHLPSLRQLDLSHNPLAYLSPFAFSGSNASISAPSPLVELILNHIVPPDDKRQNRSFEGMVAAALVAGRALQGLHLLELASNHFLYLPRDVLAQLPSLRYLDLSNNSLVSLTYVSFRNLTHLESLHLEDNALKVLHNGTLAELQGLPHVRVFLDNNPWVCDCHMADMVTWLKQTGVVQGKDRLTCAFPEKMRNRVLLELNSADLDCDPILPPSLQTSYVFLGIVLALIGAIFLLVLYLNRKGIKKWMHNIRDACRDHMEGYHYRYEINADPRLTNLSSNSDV
Source text: (§1) The stable cell lines CHOk1-hTPBG, CHOk1-cTPBG, CHOk1-mTPBG (i.e. the CHOk1-hTPBG 3A2F1, CHOk1-cTPBG 3F13G4 and CHOk1-mTPBG 3A3 shown in Table 6) and CHO-k1 cells were expanded to a 90% of confluency in T-75 cell culture flasks, and the culture medium were removed. Cells were then rinsed twice with HBSS buffer (Hanks Balanced Salt Solution, purchased from Invitrogen) and […] with enzyme-free cell dissociation buffer (Versene solution was purchased from Life technology) and harvested. Harvested cells were rinsed with HBSS buffer twice and counted before diluting with HBSS buffer to 2×10⁶ cells/mL, and 10% goat serum blocking buffer was then added, wherein the percentage is the mass percentage. Cells were incubated on ice for 30 min, and then washed twice with HBSS buffer by centrifugation. […] The plate was washed with the FACS buffer twice by centrifugation, and 100 μL per well of fluorescence (Alexa 488) labeled secondary antibody (purchased from Invitrogen) was then added and incubated on ice for 1 h. […] The results were measured and analyzed by FACS (FACS Calibur, purchased from BD). The data was analyzed by software (CellQuest) to obtain the mean fluorescence intensity (MFI) of the cells, follow by calculating EC50 value by software (GraphPad Prism) analysis and data fitting.

[32] = biological target: T3, human TPBG protein, full-length, on the cell surface (human, UniProt Q13641 32-420); test: FACS on CHOk1-hTPBG cells
T3 construct: whole, on cells; Transfected HEK293 (293F-hTPBG clones) and CHO-k1 (CHOk1-hTPBG 3A2F1) cells; also used here for endogenous TPBG on the TPBG-positive tumour lines NCI-H1568, NCI-H1975 and MDA-MB-468 in the killing assays; also called hTPBG; 5T4
T3 sequence (looked up): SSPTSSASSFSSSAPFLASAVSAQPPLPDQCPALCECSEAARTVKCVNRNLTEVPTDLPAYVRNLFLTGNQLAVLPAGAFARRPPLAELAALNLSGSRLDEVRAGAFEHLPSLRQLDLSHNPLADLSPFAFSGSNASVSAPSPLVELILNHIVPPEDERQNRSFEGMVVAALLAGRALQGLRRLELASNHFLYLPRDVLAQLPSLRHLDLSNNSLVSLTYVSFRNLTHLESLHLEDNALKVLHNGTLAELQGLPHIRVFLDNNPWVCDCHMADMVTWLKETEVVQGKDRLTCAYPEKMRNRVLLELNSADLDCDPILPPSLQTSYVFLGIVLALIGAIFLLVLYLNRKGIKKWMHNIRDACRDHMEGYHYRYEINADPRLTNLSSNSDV
Source text: as §1

[33] = biological target: T4, mouse TPBG protein, full-length, on the cell surface (mouse, UniProt Q9Z0L0 32-426); test: FACS on CHOk1-mTPBG cells
T4 construct: whole, on cells; also called mTPBG; CHOk1-mTPBG
T4 sequence (looked up): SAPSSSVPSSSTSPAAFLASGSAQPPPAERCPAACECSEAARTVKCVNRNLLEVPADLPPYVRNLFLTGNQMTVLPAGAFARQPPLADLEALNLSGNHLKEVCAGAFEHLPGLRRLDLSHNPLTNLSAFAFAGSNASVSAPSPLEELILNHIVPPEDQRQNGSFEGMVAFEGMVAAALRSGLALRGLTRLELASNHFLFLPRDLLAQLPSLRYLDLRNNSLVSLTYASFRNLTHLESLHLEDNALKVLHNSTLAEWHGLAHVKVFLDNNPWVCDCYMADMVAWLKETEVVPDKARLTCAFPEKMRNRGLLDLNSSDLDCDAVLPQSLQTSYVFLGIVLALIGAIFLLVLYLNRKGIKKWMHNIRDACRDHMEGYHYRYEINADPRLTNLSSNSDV
Source text: as §1

With mouse IgG (isotype control) (antibody) the Cellular MFI [1] was 2.38 MFI, the Cellular MFI [2] was 3.24 MFI and the Cellular MFI [3] was 2.66 MFI. It also gave a Cellular MFI [4] of 3.1 MFI, a Cellular MFI [5] of 6.3 MFI and a Cellular MFI [6] of 6.3 MFI. It also gave a Cellular MFI [7] of 3.2 MFI, a Cellular MFI [8] of 5.6 MFI and a Cellular MFI [9] of 5.2 MFI. It also gave a Cellular MFI [10] of 3.9 MFI, a Cellular MFI [11] of 4 MFI and a Cellular MFI [12] of 3.1 MFI. For the same molecule, the Cellular MFI [13] was 5 MFI, the Cellular MFI [14] was 3 MFI and the Cellular MFI [15] was 5.6 MFI. It also gave a Cellular MFI [16] of 2.6 MFI, a Cellular MFI [17] of 6 MFI and a Cellular MFI [18] of 3 MFI. The Cellular MFI [19] was 4 MFI, the Cellular MFI [20] was 4.6 MFI and the Cellular MFI [21] was 3.7 MFI. It also gave a Cellular MFI [22] of 4.1 MFI, a Cellular MFI [23] of 4.8 MFI and an OD450 nm (human TPBG-hFc protein [24]) of 0.1 OD450 nm. It also gave an OD450 nm (human TPBG-hFc protein [25]) of 0.11 OD450 nm, an OD450 nm (human TPBG-hFc protein [26]) of 0.11 OD450 nm and an OD450 nm (human TPBG-hFc protein [27]) of 0.24 OD450 nm. For the same molecule, the OD450 nm (human TPBG-hFc protein [28]) was 0.1 OD450 nm, the OD450 nm (human TPBG-hFc protein [29]) was 0.1 OD450 nm and the OD450 nm (human TPBG-hFc protein [30]) was 0.11 OD450 nm.

B1: mouse anti-TPBG monoclonal antibody 28D4E6A9 (antibody, V domains shown)
VH: DVQLVESGGGLVRPGGSLKLSCAASGFTFSNYVMSWARQSPEKRLEWVAEISTGGSHTYYSDTVTGRFTISRDNAKKALYLEMSSLRSEDTAIYYCIMFYYGSSYSMDYWGQGTSVTVSS
VL: DIQMTQSTSSLSASLGDRITISCRASQDIRNYLNWYQQKPDGTVKLLIYHTSRLHSGVPSRFSGSGSGTDYSLTISNLEQEDIATYFCQQGDTLPLTFGAGTRLELK
notes: Mouse antibody purified from hybridoma supernatant; also called 28D4E6A9 (28D4 for short)
B1 was tested, and the EC50 [31] was 250 pM, the EC50 [32] was 630 pM and the binding result [33] was “no binding”.
